According to IntAct's records for PubMed 29892012:

B1: Multifunctional procollagen lysine hydroxylase and glycosyltransferase LH3 (Homo sapiens), O60568 (parent)
chain: MTSSGPGPRFLLLLPLLLPPAASASDRPRGRDPVNPEKLLVITVATAETEGYLRFLRSAEFFNYTVRTLGLGEEWRGGDVARTVGGGQKVRWLKKEMEKYADREDMIIMFVDSYDVILAGSPTELLKKFVQSGSRLLFSAESFCWPEWGLAEQYPEVGTGKRFLNSGGFIGFATTIHQIVRQWKYKDDDDDQLFYTRLYLDPGLREKLSLNLDHKSRIFQNLNGALDEVVLKFDRNRVRIRNVAYDTLPIVVHGNGPTKLQLNYLGNYVPNGWTPEGGCGFCNQDRRTLPGGQPPPRVFLAVFVEQPTPFLPRFLQRLLLLDYPPDRVTLFLHNNEVFHEPHIADSWPQLQDHFSAVKLVGPEEALSPGEARDMAMDLCRQDPECEFYFSLDADAVLTNLQTLRILIEENRKVIAPMLSRHGKLWSNFWGALSPDEYYARSEDYVELVQRKRVGVWNVPYISQAYVIRGDTLRMELPQRDVFSGSDTDPDMAFCKSFRDKGIFLHLSNQHEFGRLLATSRYDTEHLHPDLWQIFDNPVDWKEQYIHENYSRALEGEGIVEQPCPDVYWFPLLSEQMCDELVAEMEHYGQWSGGRHEDSRLAGGYENVPTVDIHMKQVGYEDQWLQLLRTYVGPMTESLFPGYHTKARAVMNFVVRYRPDEQPSLRPHHDSSTFTLNVALNHKGLDYEGGGCRFLRYDCVISSPRKGWALLHPGRLTHYHEGLPTTWGTRYIMVSFVDP
partner: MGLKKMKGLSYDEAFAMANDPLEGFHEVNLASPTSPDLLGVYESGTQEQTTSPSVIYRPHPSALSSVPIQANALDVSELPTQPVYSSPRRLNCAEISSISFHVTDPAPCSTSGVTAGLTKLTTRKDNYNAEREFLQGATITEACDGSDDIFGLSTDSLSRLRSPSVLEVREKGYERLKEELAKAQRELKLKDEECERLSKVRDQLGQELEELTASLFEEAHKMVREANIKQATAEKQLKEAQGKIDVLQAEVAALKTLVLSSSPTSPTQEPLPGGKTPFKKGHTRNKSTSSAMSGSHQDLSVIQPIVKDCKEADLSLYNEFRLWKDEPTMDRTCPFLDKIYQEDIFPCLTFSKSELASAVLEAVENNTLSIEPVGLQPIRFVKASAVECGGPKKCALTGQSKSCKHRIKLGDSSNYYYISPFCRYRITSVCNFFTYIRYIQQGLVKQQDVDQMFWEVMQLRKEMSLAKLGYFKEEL
B2: Multifunctional procollagen lysine hydroxylase and glycosyltransferase LH3 (Homo sapiens), O60568 (parent)
chain: B1 chain
partner: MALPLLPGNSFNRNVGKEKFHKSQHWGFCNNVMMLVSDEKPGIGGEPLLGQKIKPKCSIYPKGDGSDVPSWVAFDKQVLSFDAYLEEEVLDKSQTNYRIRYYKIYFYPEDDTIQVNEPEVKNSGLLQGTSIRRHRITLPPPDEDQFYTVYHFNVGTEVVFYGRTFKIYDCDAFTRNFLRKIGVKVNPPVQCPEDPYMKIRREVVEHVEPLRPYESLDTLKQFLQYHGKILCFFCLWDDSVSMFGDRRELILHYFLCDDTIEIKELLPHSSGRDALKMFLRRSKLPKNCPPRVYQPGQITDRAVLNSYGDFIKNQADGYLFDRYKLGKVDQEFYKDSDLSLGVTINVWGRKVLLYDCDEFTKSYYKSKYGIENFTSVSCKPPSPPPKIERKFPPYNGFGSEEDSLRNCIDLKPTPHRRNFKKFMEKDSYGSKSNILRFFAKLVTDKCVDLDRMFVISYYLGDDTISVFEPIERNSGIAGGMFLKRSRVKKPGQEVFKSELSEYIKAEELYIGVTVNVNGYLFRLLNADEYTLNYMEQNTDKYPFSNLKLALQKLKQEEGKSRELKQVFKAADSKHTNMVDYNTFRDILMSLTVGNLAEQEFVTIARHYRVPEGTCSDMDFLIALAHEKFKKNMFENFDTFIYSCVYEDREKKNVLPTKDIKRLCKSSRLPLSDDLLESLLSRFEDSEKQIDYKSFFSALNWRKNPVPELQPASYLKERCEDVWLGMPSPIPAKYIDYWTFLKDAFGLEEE
B3: Zyxin (Homo sapiens), Q15942 (parent)
chain: MAAPRPSPAISVSVSAPAFYAPQKKFGPVVAPKPKVNPFRPGDSEPPPAPGAQRAQMGRVGEIPPPPPEDFPLPPPPLAGDGDDAEGALGGAFPPPPPPIEESFPPAPLEEEIFPSPPPPPEEEGGPEAPIPPPPQPREKVSSIDLEIDSLSSLLDDMTKNDPFKARVSSGYVPPPVATPFSSKSSTKPAAGGTAPLPPWKSPSSSQPLPQVPAPAQSQTQFHVQPQPQPKPQVQLHVQSQTQPVSLANTQPRGPPASSPAPAPKFSPVTPKFTPVASKFSPGAPGGSGSQPNQKLGHPEALSAGTGSPQPPSFTYAQQREKPRVQEKQHPVPPPAQNQNQVRSPGAPGPLTLKEVEELEQLTQQLMQDMEHPQRQNVAVNELCGRCHQPLARAQPAVRALGQLFHIACFTCHQCAQQLQGQQFYSLEGAPYCEGCYTDTLEKCNTCGEPITDRMLRATGKAYHPHCFTCVVCARPLEGTSFIVDQANRPHCVPDYHKQYAPRCSVCSEPIMPEPGRDETVRVVALDKNFHMKCYKCEDCGKPLSIEADDNGCFPLDGHVLCRKCHTARAQT
partner: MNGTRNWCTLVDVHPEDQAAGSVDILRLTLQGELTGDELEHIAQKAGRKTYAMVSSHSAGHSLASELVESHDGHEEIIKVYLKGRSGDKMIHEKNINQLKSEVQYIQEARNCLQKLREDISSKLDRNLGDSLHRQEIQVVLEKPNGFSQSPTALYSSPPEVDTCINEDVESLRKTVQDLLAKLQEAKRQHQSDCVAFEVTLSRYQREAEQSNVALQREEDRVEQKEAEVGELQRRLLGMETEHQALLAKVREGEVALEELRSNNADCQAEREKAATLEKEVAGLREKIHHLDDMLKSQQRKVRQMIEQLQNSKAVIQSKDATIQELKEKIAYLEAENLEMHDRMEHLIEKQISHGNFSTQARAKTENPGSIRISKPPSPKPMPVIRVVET
B4: Zyxin (Homo sapiens), Q15942 (parent)
chain: B3 chain
partner: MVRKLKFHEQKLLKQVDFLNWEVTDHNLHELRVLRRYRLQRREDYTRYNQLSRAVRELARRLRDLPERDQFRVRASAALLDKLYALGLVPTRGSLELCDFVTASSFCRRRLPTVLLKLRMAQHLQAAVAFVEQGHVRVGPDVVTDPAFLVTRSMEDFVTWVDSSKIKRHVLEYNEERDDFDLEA
B5: Zyxin (Homo sapiens), Q15942 (parent)
chain: B3 chain

Variants of: B1
Conditions: with rab3i_human RAB3IP

Row | Variant | effect of a mutation on the interaction
1 | R235Q | with no effect

Variants of: B2
Conditions: with efhc2_human EFHC2, Q5JST6

Row | Variant | effect of a mutation on the interaction
2 | R235Q | with no effect

Variants of: B3
Conditions: with tuft1_human TUFT1, Q9NNX1

Row | Variant | effect of a mutation on the interaction
3 | R167G | with no effect

Variants of: B4
Conditions: with imp3_human IMP3, Q9NV31

Row | Variant | effect of a mutation on the interaction
4 | R167G | with no effect

Variants of: B5
Conditions: with pf21a_human PHF21A

Row | Variant | effect of a mutation on the interaction
5 | R167G | with no effect
